According to patent US20160222130A1:

Target: human Tie2 (on human Tie2-expressing cells) (human) (UniProt Q02763)
Assay: cell-based or functional assay

human Tie2 (on human Tie2-expressing cells) (human), sequence (Q02763 23-1124): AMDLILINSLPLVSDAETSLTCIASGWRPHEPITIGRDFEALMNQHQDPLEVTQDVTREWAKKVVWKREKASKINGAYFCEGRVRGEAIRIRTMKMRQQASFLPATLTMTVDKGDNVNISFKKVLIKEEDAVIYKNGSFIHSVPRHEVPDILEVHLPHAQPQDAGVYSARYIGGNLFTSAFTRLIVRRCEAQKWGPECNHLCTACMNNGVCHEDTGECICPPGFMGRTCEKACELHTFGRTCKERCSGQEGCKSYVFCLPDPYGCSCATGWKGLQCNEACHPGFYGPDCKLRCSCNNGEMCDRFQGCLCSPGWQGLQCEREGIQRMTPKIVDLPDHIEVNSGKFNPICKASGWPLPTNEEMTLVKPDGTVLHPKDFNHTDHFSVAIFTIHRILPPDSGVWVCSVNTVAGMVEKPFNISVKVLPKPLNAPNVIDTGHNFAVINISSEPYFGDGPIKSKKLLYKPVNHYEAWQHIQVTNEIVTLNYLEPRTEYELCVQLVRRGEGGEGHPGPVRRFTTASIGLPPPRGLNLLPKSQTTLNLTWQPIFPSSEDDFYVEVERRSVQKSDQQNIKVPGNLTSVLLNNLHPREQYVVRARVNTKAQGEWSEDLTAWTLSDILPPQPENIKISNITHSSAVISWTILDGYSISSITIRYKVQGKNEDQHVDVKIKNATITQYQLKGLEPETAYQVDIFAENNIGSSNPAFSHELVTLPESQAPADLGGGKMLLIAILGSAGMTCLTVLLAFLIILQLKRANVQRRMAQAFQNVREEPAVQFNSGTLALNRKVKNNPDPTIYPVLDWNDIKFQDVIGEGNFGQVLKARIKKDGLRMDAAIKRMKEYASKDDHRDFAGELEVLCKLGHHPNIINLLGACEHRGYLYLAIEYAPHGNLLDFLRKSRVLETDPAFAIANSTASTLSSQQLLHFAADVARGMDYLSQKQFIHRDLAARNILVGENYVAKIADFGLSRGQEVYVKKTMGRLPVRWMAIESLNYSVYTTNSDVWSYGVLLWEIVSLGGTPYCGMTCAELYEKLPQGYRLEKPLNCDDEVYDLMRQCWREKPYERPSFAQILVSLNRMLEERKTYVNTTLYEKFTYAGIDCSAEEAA

## Ang-2 (R&D, 623-AN-025) (from UniProt O15123 19-496) (ligand)
  EC50 value of anti-apoptotic activity, human Tie2-expressing BaF3 cell: 0.0393 µg/mL
  Maximum activity of anti-apoptotic activities (Ang-1 = 100%): 67%
